Patent publication US20140298547

Experiments:
Experiment in all cases: cell_activity
[1] = system: ZFP SBS15590 (monomer of eZFN1 and eZFN8) (synthetic construct); details: in planta cut plus chimeric
[2] = system: ZFP SBS18473 (monomer of eZFN8) (synthetic construct); details: as eZFN8 pair with SBS15590; in planta cut plus chimeric, 489/697 plants
[3] = system: ZFP SBS8196 (monomer of eZFN1) (synthetic construct); details: as eZFN1 pair with SBS15590; in planta cut plus chimeric, 524/1125 plants

Sequence: ATTTTACAATCCTGTCCCTAGTGAGATGGGCGGGAGTCTTCAATCCTGTCCCTAGTGGATAAACTGCAAAAGGCGGATCA (double strand) [ELP locus eZFN1/eZFN8 binding region]
- activity ([1]; as eZFN1 pair with SBS8196, 524/1125 plants): 46.6%
- activity ([1]; as eZFN8 pair with SBS18473, 489/697 plants): 70.2%
- activity [2]: 70.2%
- activity [3]: 46.6%
